Laboratory results as given in EP4491631A1 (Anaveon AG, dated 2025).
Residue numbers refer to the chain shown, from its start.

T1: IL-2R CD122-CD132 on Jurkat-PD1+ CD122+ cells (UniProt P14784 27-551; P31785 23-369)
T1 sequence (looked up) 1: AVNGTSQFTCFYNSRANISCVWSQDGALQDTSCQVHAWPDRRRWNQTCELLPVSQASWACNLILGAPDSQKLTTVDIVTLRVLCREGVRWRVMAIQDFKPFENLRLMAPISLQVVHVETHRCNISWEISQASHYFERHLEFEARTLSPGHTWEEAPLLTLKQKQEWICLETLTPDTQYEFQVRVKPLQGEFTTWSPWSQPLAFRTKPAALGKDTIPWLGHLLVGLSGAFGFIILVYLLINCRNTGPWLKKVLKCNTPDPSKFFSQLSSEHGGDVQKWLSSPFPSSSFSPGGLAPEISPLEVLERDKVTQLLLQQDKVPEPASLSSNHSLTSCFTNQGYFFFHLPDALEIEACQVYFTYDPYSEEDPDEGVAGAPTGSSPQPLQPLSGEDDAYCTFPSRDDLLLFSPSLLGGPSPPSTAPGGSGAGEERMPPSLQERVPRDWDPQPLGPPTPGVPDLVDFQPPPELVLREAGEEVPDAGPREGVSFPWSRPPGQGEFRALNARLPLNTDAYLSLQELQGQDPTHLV
T1 sequence (looked up) 2: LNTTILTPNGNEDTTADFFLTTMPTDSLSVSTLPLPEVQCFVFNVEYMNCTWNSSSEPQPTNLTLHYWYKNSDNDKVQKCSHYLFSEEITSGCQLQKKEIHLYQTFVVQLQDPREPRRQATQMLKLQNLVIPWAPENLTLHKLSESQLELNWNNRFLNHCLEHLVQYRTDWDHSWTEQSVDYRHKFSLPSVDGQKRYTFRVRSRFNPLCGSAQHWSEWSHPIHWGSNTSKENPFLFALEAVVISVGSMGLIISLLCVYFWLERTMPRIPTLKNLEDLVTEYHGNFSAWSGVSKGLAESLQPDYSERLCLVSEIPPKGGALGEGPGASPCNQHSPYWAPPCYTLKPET

B1: MDS446 (bispecific antibody, human IgG1, kappa, L234A L235A)
chain 1: QVQLVQSGAEVKKPGASVKVSCKASGYTFTNFYIHWVRQAPGQGLEWMGSIYPNYGITAYNQKFKDRVTMTVDTSTSTAYMELRSLRSDDTAVYYCARGYSYAMDYWGQGTTVTVSSASTKGPSVFPLAPSSKSTSGGTAALGCLVKDYFPEPVTVSWNSGALTSGVHTFPAVLQSSGLYSLSSVVTVPSSSLGTQTYICNVNHKPSNTKVDKRVEPKSCDKTHTCPPCPAPEAAGGPSVFLFPPKPKDTLMISRTPEVTCVVVDVSHEDPEVKFNWYVDGVEVHNAKTKPREEQYNSTYRVVSVLTVLHQDWLNGKEYKCKVSNKALAAPIEKTISKAKGQPREPQVYTLPPSREEMTKNQVSLTCLVKGFYPSDIAVEWESNGQPENNYKTTPPVLDSDGSFFLTSKLTVDKSRWQQGNVFSCSVMHEALHNHYTQKSLSLSPGK
chain 2: DIQMTQSPSSVSASVGDRVTITCSASQGISGDLNWYQQKPGKAPKLLIYHTSQLHSDVPSRFSGSGSGTDFTLTISSLQPEDFATYYCQGYSKDLLTFGGGTKLEIKRTVAAPSVFIFPPSDEQLKSGTASVVCLLNNFYPREAKVQWKVDNALQSGNSQESVTEQDSKDSTYSLSSTLTLSKADYEKHKVYACEVTHQGLSSPVTKSFNRGEC
chain 3: AIRLTQSPSSFSASTGDRVTITCKASQSVDYGGGNFHLRPRDLISNINVIVLELKGSETTFMCEYADETATIVEFLNRWITFSQSIISTLTPTSSSTKKTQLQLEHLLLDLQMILNGINNYKNPKLTRMLTFKFYMPKKATELKHLQCLEEELKPLEEVLNLAQSKGGGGDSYMNWYQQKPGKAPKLLIYAASNLESGVPSRFSGSGSGTDFTLTISSLQSEDFATYYCQQSNEDPYTFGGGTKVEIKGGGGSGGGGSGGGGSEVQLVQSGAEVKKPGESLKISCKGSGYAFTNYLIEWVRQMPGKGLEWMGVINPGSGGTNYNEKFKGQVTISADKSISTAYLQWSSLKASDTAMYYCARWRGEGYYAYFDVWGQGTTVTVSSGGGGSGGGGSQVQLVQSGAEVKKPGASVKVSCKASGYTFTNFYIHWVRQAPGQGLEWMGSIYPNYGITAYNQKFKDRVTMTVDTSTSTAYMELRSLRSDDTAVYYCARGYSYAMDYWGQGTTVTVSSASTKGPSVFPLAPSSKSTSGGTAALGCLVKDYFPEPVTVSWNSGALTSGVHTFPAVLQSSGLYSLSSVVTVPSSSLGTQTYICNVNHKPSNTKVDKRVEPKSCDKTHTCPPCPAPEAAGGPSVFLFPPKPKDTLMISRTPEVTCVVVDVSHEDPEVKFNWYVDGVEVHNAKTKPREEQYNSTYRVVSVLTVLHQDWLNGKEYKCKVSNKALAAPIEKTISKAKGQPREPQVYTLPPSREEMTKNQVSLYCLVKGFYPSDIAVEWESNGQPENNYKTTPPVLDSDGSFFLYSKLTVDKSRWQQGNVFSCSVMHEALHNHYTQKSLSLSPGK
B2: TMU471 (bispecific antibody, human IgG1, kappa, L234A L235A)
chain 1: B1 chain 1 with S50R
chain 2: B1 chain 2 with L54R
chain 3: B1 chain 3 with S444R
B3: YPW986 (bispecific antibody)
chain 1: EVQLLESGGGLVQPGGSLRLSCAASGFTFSINAMTWVRQAPGKGLEWVSTISGSGFSTYYADSLKGRFTISRDNSKNTLYLQMNSLRAEDTAVYYCAKEVYGDYWGQGTLVTVSSASVAAPSVFIFPPSDEQLKSGTASVVCLLNNFYPREAKVQWKVDNALQSGNSQESVTEQDSKDSTYSLSSTLTLSKADYEKHKVYACEVTHQGLSSPVTKSFNRGECDKTHTCPPCPAPEAAGGPSVFLFPPKPKDTLMISRTPEVTCVVVDVSHEDPEVKFNWYVDGVEVHNAKTKPREEQYNSTYRVVSVLTVLHQDWLNGKEYKCKVSNKALAAPIEKTISKAKGQPREPQVYTLPPSREEMTKNQVSLTCLVKGFYPSDIAVEWESNGQPENNYKTTPPVLDSDGSFFLTSKLTVDKSRWQQGNVFSCSVMHEALHNHYTQKSLSLSPGK
chain 2: RSVLTQPPSASGTPGQRVSISCSGASSNIGSQSVFWYQQLPGTAPKLLIYSNNQRPSGVPDRFSGSKSGTSASLAISGLRSEDEADYYCAAWDDSLSIWVFGGGTKLTVLSSASTKGPSVFPLAPSSKSTSGGTAALGCLVKDYFPEPVTVSWNSGALTSGVHTFPAVLQSSGLYSLSSVVTVPSSSLGTQTYICNVNHKPSNTKVDKRVEPKSC
chain 3: EVQLVQSGAEVKKPGESLKISCKGSGYAFTNYLIEWVRQMPGKGLEWMGVINPGSGGTNYNEKFKGQVTISADKSISTAYLQWSSLKASDTAMYYCARWRGEGYYAYFDVWGQGTTVTVSSASTKGPSVFPLAPSSKSTSGGTAALGCLVKDYFPEPVTVSWNSGALTSGVHTFPAVLQSSGLYSLSSVVTVPSSSLGTQTYICNVNHKPSNTKVDKRVEPKSCDKTHTCPPCPAPEAAGGPSVFLFPPKPKDTLMISRTPEVTCVVVDVSHEDPEVKFNWYVDGVEVHNAKTKPREEQYNSTYRVVSVLTVLHQDWLNGKEYKCKVSNKALAAPIEKTISKAKGQPREPQVYTLPPSREEMTKNQVSLYCLVKGFYPSDIAVEWESNGQPENNYKTTPPVLDSDGSFFLYSKLTVDKSRWQQGNVFSCSVMHEALHNHYTQKSLSLSPGK
chain 4: not shown
B4: RIB426 (bispecific antibody, human IgG1, kappa, L234A L235A)
chain 1: QVQLVQSGAEVKKPGASVKVSCKASGYTFTNFYIHWVRQAPGQGLEWMGRIYPNYGITAYNQKFKDRVTMTVDTSTSTAYMELRSLRSDDTAVYYCARGYSYAMDYWGQGTTVTVSSASVAAPSVFIFPPSDEQLKSGTASVVCLLNNFYPREAKVQWKVDNALQSGNSQESVTEQDSKDSTYSLSSTLTLSKADYEKHKVYACEVTHQGLSSPVTKSFNRGECDKTHTCPPCPAPEAAGGPSVFLFPPKPKDTLMISRTPEVTCVVVDVSHEDPEVKFNWYVDGVEVHNAKTKPREEQYNSTYRVVSVLTVLHQDWLNGKEYKCKVSNKALAAPIEKTISKAKGQPREPQVYTLPPSREEMTKNQVSLTCLVKGFYPSDIAVEWESNGQPENNYKTTPPVLDSDGSFFLTSKLTVDKSRWQQGNVFSCSVMHEALHNHYTQKSLSLSPGK
chain 2: DIQMTQSPSSVSASVGDRVTITCSASQGISGDLNWYQQKPGKAPKLLIYHTSQRHSDVPSRFSGSGSGTDFTLTISSLQPEDFATYYCQGYSKDLLTFGGGTKLEIKSSASTKGPSVFPLAPSSKSTSGGTAALGCLVKDYFPEPVTVSWNSGALTSGVHTFPAVLQSSGLYSLSSVVTVPSSSLGTQTYICNVNHKPSNTKVDKRVEPKSC
chain 3: B3 chain 3
chain 4: not shown
B5: QAB373 (bispecific antibody, human IgG1, kappa, L234A L235A)
chain 1: B4 chain 1 with R50S
chain 2: B4 chain 2 with R54L
chain 3: B3 chain 3
chain 4: not shown
B6: PXU588 (bispecific antibody)
chain 1: B3 chain 1
chain 2: B3 chain 2 with Q32S
chain 3: B3 chain 3
chain 4: not shown
B7: JLI141 (bispecific antibody, human IgG1, lambda, L234A L235A)
chain 1: EVQLLESGGGLVQPGGSLRLSCAASGFTFSINAMTWVRQAPGKGLEWVSTISGSGFSTYYADSLKGRFTISRDNSKNTLYLQMNSLRAEDTAVYYCAKEVYGDYWGQGTLVTVSSASTKGPSVFPLAPSSKSTSGGTAALGCLVKDYFPEPVTVSWNSGALTSGVHTFPAVLQSSGLYSLSSVVTVPSSSLGTQTYICNVNHKPSNTKVDKRVEPKSCDKTHTCPPCPAPEAAGGPSVFLFPPKPKDTLMISRTPEVTCVVVDVSHEDPEVKFNWYVDGVEVHNAKTKPREEQYNSTYRVVSVLTVLHQDWLNGKEYKCKVSNKALAAPIEKTISKAKGQPREPQVYTLPPSREEMTKNQVSLTCLVKGFYPSDIAVEWESNGQPENNYKTTPPVLDSDGSFFLTSKLTVDKSRWQQGNVFSCSVMHEALHNHYTQKSLSLSPGK
chain 2: not shown
chain 3: AIRLTQSPSSFSASTGDRVTITCKASQSVDYGGGNFHLRPRDLISNINVIVLELKGSETTFMCEYADETATIVEFLNRWITFSQSIISTLTPTSSSTKKTQLQLEHLLLDLQMILNGINNYKNPKLTRMLTFKFYMPKKATELKHLQCLEEELKPLEEVLNLAQSKGGGGDSYMNWYQQKPGKAPKLLIYAASNLESGVPSRFSGSGSGTDFTLTISSLQSEDFATYYCQQSNEDPYTFGGGTKVEIKGGGGSGGGGSGGGGSEVQLVQSGAEVKKPGESLKISCKGSGYAFTNYLIEWVRQMPGKGLEWMGVINPGSGGTNYNEKFKGQVTISADKSISTAYLQWSSLKASDTAMYYCARWRGEGYYAYFDVWGQGTTVTVSSGGGGSGGGGSEVQLLESGGGLVQPGGSLRLSCAASGFTFSINAMTWVRQAPGKGLEWVSTISGSGFSTYYADSLKGRFTISRDNSKNTLYLQMNSLRAEDTAVYYCAKEVYGDYWGQGTLVTVSSASTKGPSVFPLAPSSKSTSGGTAALGCLVKDYFPEPVTVSWNSGALTSGVHTFPAVLQSSGLYSLSSVVTVPSSSLGTQTYICNVNHKPSNTKVDKRVEPKSCDKTHTCPPCPAPEAAGGPSVFLFPPKPKDTLMISRTPEVTCVVVDVSHEDPEVKFNWYVDGVEVHNAKTKPREEQYNSTYRVVSVLTVLHQDWLNGKEYKCKVSNKALAAPIEKTISKAKGQPREPQVYTLPPSREEMTKNQVSLYCLVKGFYPSDIAVEWESNGQPENNYKTTPPVLDSDGSFFLYSKLTVDKSRWQQGNVFSCSVMHEALHNHYTQKSLSLSPGK

Target: T1, IL-2R CD122-CD132 on Jurkat-PD1+ CD122+ …
Assay: cell-based or functional assay

| EC50 value for pSTAT5 induction | Binder |
| --- | --- |
| 60 pM | B1 |
| 60 pM | B2 |
| 43.9 nM | B3 |
| 0.12 nM | B4 |
| 70 pM | B5 |
| 5.37 nM | B6 |
| 0.2 nM | B7 |
